{"source": "patent US20260275304A1", "about": "“METHODS AND COMPOSITIONS FOR GLYPHOSATE TOLERANCE IN PLANTS” (Monsanto Technology LLC, priority 2023, published 2026)", "molecules": {"B1": {"name": "TIPS: Zea mays EPSPS double mutant T102I and P106S, SEQ ID NO:9; positive control (protein)", "chain": "AGAEEIVLQPIKEISGTVKLPGSKSLSNRILLLAALSEGTTVVDNLLNSEDVHYMLGALRTLGLSVEADKAAKRAVVVGCGGKFPVEDSKEEVQLFLGNAGIAMRSLTAAVTAAGGNATYVLDGVPRMRERPIGDLVVGLKQLGADVDCFLGTDCPPVRVNGIGGLPGGKVKLSGSISSQYLSALLMAAPLALGDVEIEIIDKLISIPYVEMTLRLMERFGVKAEHSDSWDRFYIKGGQKYKSPKNAYVEGDASSASYFLAGAAITGGTVTVEGCGTTSLQGDVKFAEVLEMMGAKVTWTETSVTVTGPPREPFGRKHLKAIDVNMNKMPDVAMTLAVVALFADGPTAIRDVASWRVKETERMVAIRTELTKLGASVEEGPDYCIITPPEKLNVTAIDTYDDHRMAMAFSLAACAEVPVAIRDPGCTRKTFPDYFDVLSTFVKN", "modifications": "Zea mays", "notes": "positive control"}, "B2": {"name": "TIPS-P126S-K296R: maize EPSPS variant, probably SEQ ID NO:11 (protein)", "chain": "B1 chain with P126S, K296R", "modifications": "Zea mays"}}, "assay_type_in_all_cases": "in vivo, Zea mays", "key": {"[1]": {"tested_on": "transgenic maize plants", "assay": "Maize transformation with glyphosate selection, plantlet recovery and quality checks", "details": "for Number of young plants passing quality control checks: in vivo; for Number of plantlets generated: under glyphosate selection, same amount of starting material", "excerpt": "Maize was used as a model system to test the functionality of the EPSPS variants because of detailed previous characterization of glyphosate tolerance in maize and a suitable transgenic plant generation protocol that relies on glyphosate. Plant transformation vectors were generated in which the native maize EPSPS sequence was used, which includes the native gene promoter elements, the native introns and exons and the native 3′ untranslated region and introduced mutations that corresponded to each of the selected amino acid changes. The native sequence was used to mimic as closely as possible how the selected EPSPS variants would perform if the variants were introduced directly in the genome without the help of strong expression elements. The following variants were selected for testing in a transgenic maize system: TIPS (as a control); TIPS-P126S-M217L-K296R; TIPS-P126S-K296R; T102I-P126S-K296R (where only the T102I change is present); P106S-P126S-K296R (where only the P106S change is present); and P126S-K296R (where neither of the TIPS changes are present).\nTransgenic maize plants that expressed each of the six EPSPS variants were generated to determine if the variants conferred glyphosate tolerance to plants. The full DNA sequence encoding TIPS EPSPS (SEQ ID NO:1) was cloned from maize genomic DNA. In this sequence, the promoter and 5′ UTR are nucleotides 1:2556; the chloroplast transit peptide sequence is nucleotides 2557:2742; EXON 1 is nucleotides 2743:2856; INTRON 1 is nucleotides 2857:3384; EXON 2 is nucleotides 3385:3626; INTRON 2 is nucleotides 3627:3725; EXON 3 is nucleotides 3726:3879; INTRON 3 is nucleotides 3880:4152; EXON 4 is nucleotides 4153:4367; INTRON 4 is nucleotides 4368:4877; EXON 5 is nucleotides 4878:4995; INTRON 5 is nucleotides 4996:5155; EXON 6 is nucleotides 5156:5366; INTRON 6 is nucleotides 5367:5446; EXON 7 is nucleotides 5447:5508; INTRON 7 is nucleotides 5509:5617; EXON 8 is nucleotides 5618:5836; and the 3′ UTR is nucleotides 5837:6368. Mutations were then introduced into the EPSPS coding sequence in order to produce each of the six EPSPS variants to be tested. These mutated full genomic DNA sequences were then each cloned as a single expression cassette into plant transformation vectors.\nAgrobacterium tumefaciens-mediated plant transformation was performed using methods known in the art. Glyphosate selection was used to select for transgenic events containing the transgene of interest and further screened for only those EPSPS variants that provided effective glyphosate tolerance in a plant cell. While all six EPSPS variants began the transformation process with the same amount of starting maize cellular material, there were differences in the number of small plantlets recovered that were capable of being transplanted to greenhouse soil media (Table 4). Transgenic events were further analyzed to determine transgene copy number. Healthy events with single copy of the transgene of interest were grown in the greenhouse soil media. Only three of the six EPSPS variants had more than one plant surviving. Up to twenty-five of these developing R0 plants were transplanted to larger pots and allowed to grow to maturity for seed collection in the greenhouse."}, "[2]": {"tested_on": "transgenic maize plants", "assay": "Greenhouse glyphosate spray test on hybrid (hemizygous) transgenic maize", "details": "for Average Injury At 1120 g/ha: Roundup PowerMax3, 1× field rate; for Average Injury At 1120 g/ha / Average Injury At 2240 g/ha: 18 days after treatment, scale of 0 to 100; for Average Injury At 2240 g/ha: Roundup PowerMax3, 2× field rate", "method": "To further evaluate the performance of EPSPS variants for glyphosate tolerance, transgenic maize plants comprising a single copy of the transgene encoding the EPSPS variants TIPS-P126S-M217L-K296R or TIPS-P126S-K296R were grown to maturity. Homozygous transgenic plants were crossed with an inbred line to produce hybrid seeds.\nPlants from the hybrid seeds (hemizygous for the transgenes) of two independent transformation events for each of the two variants were grown in the greenhouse for glyphosate spray test. Roundup® PowerMax3, a commercial formulation of glyphosate, was applied at the third leaf stage at two rates: 1120 gram/hectare (1× the field rate) and 2240 gram/hectare (2× the field rate). The controls included an untreated untransformed control without glyphosate treatment, an untransformed control sprayed with glyphosate, and a TIPS positive control both sprayed with glyphosate. Glyphosate herbicide injury (plant stunting, chlorosis, necrosis, malformation, and death) was assessed by visual inspection of the plants 18 days after herbicide treatment. Herbicide injury rate was presented on a scale of 0 to 100 with “0” being no visible crop injury and “100” being complete crop injury or death."}, "[3]": {"tested_on": "transgenic maize plants", "assay": "Glyphosate spray test on R0 transgenic maize plants", "details": "for Percent of sprayed plants showing glyphosate injury: 0.75 lb ae/acre POST at V3-V4, seven days after application; for plants injured by the glyphosate spray: injury observed 1 week following treatment", "method": "Two of the six EPSPS variants had developing plants greater than twenty-five. The extra developing R0 plants from these two variants were utilized in a glyphosate spray test to determine the tolerance provided by the EPSPS variants to a typical post glyphosate application to young plants. The R0 plants were sprayed with glyphosate applied postemergence (POST) at 0.75 lb ae (acid equivalent)/acre (0.84 kg ae/ha) at the V3-V4 stage. Treated plants were evaluated for injury seven days after glyphosate application."}}, "note": "Substitutions are numbered along the chain they refer to. In names and notes the source's numbering stands."}
{"molecule": "B1", "values": [{"measurement": "Number of young plants passing quality control checks", "setting": "[1]", "value": 35}, {"measurement": "Number of plantlets generated", "setting": "[1]", "value": 192}, {"measurement": "tolerance to glyphosate", "setting": "[2]; 2× field rate", "value": "minor injuries"}, {"measurement": "Average Injury At 1120 g/ha", "setting": "[2]", "value": 0}, {"measurement": "Average Injury At 2240 g/ha", "setting": "[2]", "value": 1.25}, {"measurement": "Percent of sprayed plants showing glyphosate injury", "setting": "[3]", "value": 30, "unit": "%"}, {"measurement": "plants injured by the glyphosate spray", "setting": "[3]", "value": "Three of the ten"}]}
{"molecule": "B2", "values": [{"measurement": "Number of young plants passing quality control checks", "setting": "[1]", "value": 38}, {"measurement": "Number of plantlets generated", "setting": "[1]", "value": 190}, {"measurement": "tolerance to glyphosate", "setting": "[2]; 2× field rate", "value": "minor injuries"}, {"measurement": "Average Injury At 1120 g/ha", "setting": "[2]", "value": 0}, {"measurement": "Average Injury At 2240 g/ha", "setting": "[2]", "value": 17}, {"measurement": "tolerance to glyphosate", "setting": "[2]; equivalent 1× field dose", "value": "excellent tolerance"}, {"measurement": "Percent of sprayed plants showing glyphosate injury", "setting": "[3]", "value": 0, "unit": "%"}, {"measurement": "plants injured by the glyphosate spray", "setting": "[3]", "value": "none"}]}
